Assays:
[1] = test system: Fibroblasts (HDFn Cell Line); assay: Initial pilot cell viability dose response (MTT assay); details: for cell viability, percent of untreated cells: 48 hours
Description: Initial screening was conducted to identify a test range suitable to determine the effect of a broad range of test material concentrations on cell viability. […] Cultured fibroblasts were exposed to the test materials for 48 hours and then changes in cell viability were determined using an MTT assay (i.e., a colorimetric analysis of the metabolic activity of the cultured cells, described in greater detail below).
The purple crystals are extracted from the cells with isopropanol and the amount of crystal formation quantified spectrophotometrically. […] A decrease in color intensity can be a sign of toxicity.
Fibroblasts (Cascade Biologics, HDFn Cell Line, lot#1C0914) were seeded into the individual wells of either a 96-well plate (for the initial pilot work to determine concentration effects on cell viability) in 100 μl of Fibroblast Growth Media (FGM) or in 12-well plates (for the measurement of collagen, elastin and MMP-1) in 1.0 ml of FGM and incubated overnight at 37±2° C. and 5±1% CO2. On the following day, the medium was removed via aspiration to eliminate any non-adherent cells and replaced with fresh FGM. The cells were grown until confluent, with a media change every 48 to 72 hours. Upon reaching confluency, the cells were treated for 24 hours with Dulbecco's Modified Essential Media (DMEM) supplemented with 1.5% FBS to wash out any effects from the growth factors included in the normal FGM. After this 24-hour wash out period, the cells were treated with the test materials at the specified concentrations dissolved in DMEM with 1.5% FBS. Untreated cells (negative controls) received DMEM with 1.5% FBS. The cells were incubated for 48 hours and at the end of the incubation period cell culture medium was either discarded (pilot work) or collected and stored frozen at −75° C. The test materials were tested in triplicate.
After the 2-day incubation, the cell culture medium was removed and the fibroblasts were washed twice with PBS to remove any remaining test material. After the final wash, either 100 μl (96-well plates) or 300 μl (12-well plates) of DMEM supplemented with 0.5 mg/ml MTT were added to each well and the cells were incubated for 1 hour at 37±2° C. and 5±1% CO2. After the incubation, the DMEM/MTT solution was removed and the cells were washed again once with PBS and then either 100 μl (96-well plates) or 1 ml (12-well plates) of isopropyl alcohol were added to each well to extract the purple formazin crystals. For the 12-well plates, two hundred microliters of the isopropyl extracts was transferred to a 96-well plate. The 96-well plates were read at 540 nm using isopropyl alcohol as a blank. The mean MTT absorbance value for the negative control cells was calculated and used to represent 100% value for cell viability. The individual MTT values from the cells undergoing the various treatments were then divided by the mean value for the negative control cells and expressed as a percent, to determine the change in cell viability caused by each treatment.

MMP-1 = MMP-1 assay (fluorometric ELISA of fibroblast culture media); type: cell-based, human; details: for MMP-1 Activity: 48 hours, untreated 0.11 ± 0.05
Description: MMP-1 is a zinc and calcium dependent endopeptidase that is produced and released from both dermal fibroblasts and keratinocytes, and functions to break down collagens located in the extracellular matrix. Active MMP-1 released into the culture media can be assayed using a fluorescence-based ELISA. […] To quantify the active MMP-1 a fluorogenic substrate linked to a quencher molecule is added and any active MMP-1 present will cleave the peptide linkage between the fluorophore and the quencher molecule. This cleavage will eliminate the quencher molecules ability to inhibit the fluorescent signal of the fluorophore allowing a fluorescent signal that will be proportional to the amount of active MMP-1 present.
(§1) The test materials were tested in triplicate.
R&D Products MMP-1 Fluorokine E fluorometric ELISA kits were used in these experiments. A series of MMP-1 standards was prepared ranging from 0.39 ng/ml to 25 ng/ml and an ELISA microplate was prepared by removing any unneeded strips from the plate frame. In each well, 200 μA of Assay Diluent RD1-64 and 50 μA of each sample were added. For the standards, 100 μl of Assay Diluent RD1-64 and 150 μl of each respective standard were added. The plate was incubated for 3±0.25 hours at room temperature on a rocking platform. At the end of the incubation period, each well was aspirated and then washed four times with 400 μl of wash buffer. […] After the incubation period, the plate was washed four times as described above. After the last wash, 200 μl of substrate solution were added to each well and the plate was incubated for 17-20 hours at 37±2° C. (protected from light). At the end of the incubation period, the fluorescence intensity was measured (excitation 320 nm, emission 405 nm) using a fluorometer using a 20 mS integration time. To quantify the amount of MMP-1 activity, a standard curve was generated using known activity levels of MMP-1. […] Mean absorbance values for the test materials and untreated samples were then used to estimate the amount of MMP-1 activity present in each sample.

elastin = assay: Elastin assay (Fastin colorimetric assay of culture media); type: cell-based, human; details: 48 hours, spent fibroblast media, untreated 69 ± 2
Description: Elastin is released by fibroblasts (soluble elastin) into the extracellular space where it is then cross-linked to other elastin proteins to form an extensive network of fibers and sheets (insoluble elastin). Soluble elastin can be readily measured from cell culture medium via a colorimetric assay.
as §1
In these experiments, the Biocolor Fastin Elastin Assay kits were used. A 50 μl aliquot of sample material (cell culture medium for soluble elastin) was mixed with 1.0 ml of cold Fastin Precipitating Reagent in a 1.5-ml microcentrifuge tube. In addition to the spent media samples from the fibroblasts, 50 μl aliquots of the test materials diluted into fresh culture media at the concentrations used in the study were also assayed for elastin content. The sample/Fastin Precipitating Reagent mixture was then incubated overnight in an ice water bath to precipitate the elastin. On the following day, the cold microcentrifuge tubes were spun at 10,000×g for 10 minutes to pack the precipitated elastin and the supernatant was removed via careful aspiration.
One (1) ml of Fastin Dye Reagent, along with 100 μl of 90% saturated ammonium sulphate was added to each tube. The microcentrifuge tubes were mixed with a vortex mixer and then allowed to incubate for at least 60 minutes at room temperature, with gentle mechanical agitation. The Fastin Dye Reagent interacts with unique amino acid sequences in the elastin protein. This elastin-dye complex precipitates in the presence of ammonium sulphate. After the incubation was over, the microcentrifuge tubes were spun at 10,000×g for 10 minutes to separate the precipitated elastin-dye complex from the unbound dye. The supernatant was carefully removed and the tubes were inverted to allow any residual supernatant to drain out.
To release the elastin-bound dye, 1.0 ml of Fastin Destain reagent was added to each microcentrifuge tube. The tubes were capped as quickly as possible, as this reagent contains ammonia and methanol. The tubes were then vortexed. The absorbance of this solution was measured by a plate reader at 490 nm (200 μl volume read).
An elastin standard curve was generated using 12.5, 25, and 50 μg aliquots of an Elastin Standard into microcentrifuge tubes (in duplicate). These samples were treated as described above (Elastin Assay) and the absorbance values were used to generate a standard curve of known concentrations. To derive the standard curve for the elastin assay, the absorbance was plotted against the elastin concentration in μg/ml for the standards. […] Mean absorbance values for the test materials and untreated samples were then used to estimate the amount of elastin present in each sample.

[2] = test system: cultured dermal fibroblasts; assay: UVB protection, initial MTT assay (material applied after UVB); details: 0.14%, −UVB condition
Description: In these experiments, the test material was tested at six concentrations with two duplicate sets of cells prepared. […] Changes in cell viability were then determined 48 hours post material application via an MTT assay, as described above.
Fibroblasts were seeded into the individual wells of a 96 well plate in 100 μl FGM, and incubated overnight at 37±2° C. and 5±1% CO2. On the following day, the media were removed via aspiration to eliminate any non-adherent cells and replaced with 100 μl of fresh FGM. The cells were grown until confluent, with a media change every 48 to 72 hours.
An UVLM-26 lamp was used as the source of UVB light. UV light intensity was measured using a UVX radiometer coupled to a UVB sensor probe (UV Products) to determine the time required to deliver an approximate dose of 50 mj/cm^2. Prior to UVB exposure, the FGM was replaced with 100 μl PBS. After exposure, the PBS was removed and replaced with FGM supplemented with either the test materials, 20 μM Trolox, or left unsupplemented. A duplicate set of cells was also prepared and treated as described above, with the exception that they were not exposed to UVB light. […] The cells were allowed to incubate with the test materials for 48 hours, and then changes in cell viability were determined via an MTT assay. […]
After the 48-hour incubation, the cell culture medium was removed and the fibroblasts were washed with PBS to remove any remaining test material. […] The 96-well plate was then read at 540 nm using isopropyl alcohol as a blank.
The mean MTT absorbance value for the negative control cells (non-UVB exposed and non test material treated cells) was calculated and used to represent 100% value for cell number. The individual MTT values from the cells undergoing the various treatments was then divided by the mean value for the negative control cells and expressed as a percent, to determine the change in cell viability caused by each treatment. MTT scores for each treatment are expressed as means±the standard deviation of the mean.

[3] = test system: procollagen type I C-peptide; assay: Procollagen assay (type I C-peptide ELISA of fibroblast culture media); type: cell-based, human; details: 48 hours, untreated 873 ± 111
Source text: Collagen is synthesized as part of a much larger procollagen peptide. As the peptide is processed to form a mature collagen protein, the propeptide portion is cleaved off (type I C-peptide). Both the mature collagen protein and the type I C-peptide fragment are then released into the extracellular environment and accumulate in the culture media. Since there is a 1:1 stoichiometric ratio between the two parts of the procollagen peptide, assaying for type I C-peptide will reflect the amount of collagen synthesized. Type 1 C-peptide can be assayed via an ELISA based method.
as §1
Takara procollagen type IC-peptide ELISA kits were used in these experiments. A series of type I C-peptide standards was prepared ranging from 40 ng/ml to 640 ng/ml. An ELISA microplate was then prepared by removing any unneeded strips from the plate frame. To each well in the plate 100 μl of peroxidase-labeled anti procollagen type I-C peptide was added, followed by 20 μA of either sample (tissue culture media) or standard. The microplate was covered and allowed to incubate for 3±0.25 hours at 37° C. After the incubation period, each well was aspirated and washed three times with 400 μl of wash buffer. After the last wash was removed, 100 μl of peroxidase substrate solution (hydrogen peroxide containing tetramethylbenzidine as a chromagen) were added to each well and the plate was incubated for 15±5 minutes at room temperature. After the incubation period, 100 μA of stop solution (1 N sulfuric acid) was added to each well and the plate was read using a microplate reader at 450 nm. To quantify the amount of procollagen present, a standard curve was generated using known concentrations of procollagen type 1-C peptide. […] Mean absorbance values for the test materials and untreated samples was then used to estimate the amount of procollagen type 1-C peptide present in each sample.

B1: GC2596-26-D: SELP47K modified with two units of ALSYP (SEQ ID NO:36) peptides in each SELP47K unit; SEQ ID NO:32 (Example 4) (protein)
chain: MDPVVLQRRDWENPGVTQLNRLAAHPPFASDPMGAGAGSGAGAGSALSYPGVGVPGVGVPGVGVPGVGVPGKGVPGVGVPGVGVPGVGVPALSYPGAGAGSGAGAGSGAGAGSGAGAGSALSYPGVGVPGVGVPGVGVPGVGVPGKGVPGVGVPGVGVPGVGVPALSYPGAGAGSGAGAGSGAGAGSGAGAGSALSYPGVGVPGVGVPGVGVPGVGVPGKGVPGVGVPGVGVPGVGVPALSYPGAGAGSGAGAGSGAGAGSGAGAGSALSYPGVGVPGVGVPGVGVPGVGVPGKGVPGVGVPGVGVPGVGVPALSYPGAGAGSGAGAGSGAGAGSGAGAGSALSYPGVGVPGVGVPGVGVPGVGVPGKGVPGVGVPGVGVPGVGVPALSYPGAGAGSGAGAGSGAGAGSGAGAGSALSYPGVGVPGVGVPGVGVPGVGVPGKGVPGVGVPGVGVPGVGVPALSYPGAGAGSGAGAGSGAGAGSGAGAGSALSYPGVGVPGVGVPGVGVPGVGVPGKGVPGVGVPGVGVPGVGVPALSYPGAGAGSGAGAGSGAGAGSGAGAGSALSYPGVGVPGVGVPGVGVPGVGVPGKGVPGVGVPGVGVPGVGVPALSYPGAGAGSGAGAGSGAGAGSGAGAGSALSYPGVGVPGVGVPGVGVPGVGVPGKGVPGVGVPGVGVPGVGVPALSYPGAGAGSGAGAGSGAGAGSGAGAGSALSYPGVGVPGVGVPGVGVPGVGVPGKGVPGVGVPGVGVPGVGVPALSYPGAGAGSGAGAGSGAGAGSGAGAGSALSYPGVGVPGVGVPGVGVPGVGVPGKGVPGVGVPGVGVPGVGVPALSYPGAGAGSGAGAGSGAGAGSGAGAGSALSYPGVGVPGVGVPGVGVPGVGVPGKGVPGVGVPGVGVPGVGVPALSYPGAGAGSGAGAGSGAGAGSGAGAGSALSYPGVGVPGVGVPGVGVPGVGVPGKGVPGVGVPGVGVPGVGVPALSYPGAGAGSGAGAGSGAGAMDPGRYQDLRSHHHHHH
modifications: SELP 47K-P4
cell viability, percent of untreated cells ([1]; 0.0014%): 130 ± 15% | cell viability, percent of untreated cells ([1]; 0.007%): 138 ± 9% | cell viability, percent of untreated cells ([1]; 0.014%): 145 ± 12% | cell viability, percent of untreated cells ([1]; 0.07%): 145 ± 11% | cell viability, percent of untreated cells ([1]; 0.14%): 154 ± 24% | effect on the number of viable cells ([1]; initial dose response, summary in words): strongly stimulate increases in the number of viable cells | MMP-1 Activity (MMP-1; 0.0014%): -0.01 ± 0.01 ng/mL | MMP-1 Activity (MMP-1; 0.007%): -0.02 ± 0.02 ng/mL | MMP-1 Activity (MMP-1; 0.014%): -0.03 ± 0.01 ng/mL | effect on MMP-1 activity (MMP-1; summary in words): almost complete loss of detectable MMP-1 activity | Elastin (elastin; 0.0014%): 72 ± 12 μg/ml media | Elastin (elastin; 0.007%): 69 ± 4 μg/ml media | Elastin (elastin; 0.014%): 68 ± 10 μg/ml media | number of viable cells greater than −UVB untreated cells [2]: 54% | Type-1 C Peptide ([3]; 0.0014%): 894 ± 156 ng/mL | Type-1 C Peptide ([3]; 0.007%): 908 ± 94 ng/mL | Type-1 C Peptide ([3]; 0.014%): 829 ± 171 ng/mL

— patent US20130059772A1, “Use of Repeat Sequence Protein Polymers in Personal Care Compositions” (DANISCO US INC., priority 2003, published 2013)
